# Experimental data reported in the DeepSol protein solubility set.
# Test: soluble on expression in E. coli; label from the status in PepcDB or PDB records
row,Sequence,soluble on expression in E. coli
1,SLESYLRLSEVDKQILHSHALMLDGLGNFFGSTHEVILHSLENLESSAIKVINGHFSNRKEGAPITDMALKMLSQVESEHDYAVKPYYNKNQKGVILKSSTIPVIGENDRIIGLICINMHLEMPLIDYLQDLLPSGQQNDMSQELKNSEHFSDNIDELITTSLTKVKQAVESDPNVSHLNQNKEIVIRLYDQGIFNLKDSVIKIADRLGISKNTIYLHIRNHKKEEA,soluble
2,CPVNWVEHERSCYWFSRSGKAWADADNYCRLEDAHLVVVTSWEEQKFVQHHIGPVNTWMGLHDQNGPWKWVDGTDYETGFKNWRPEQPDDWYGHGLGGGEDCAHFTDDGRWNDDVCQRPYRWVCETEL,soluble
3,MTDFQKQFFARLHIEEKDTVSFEDLSNIMYAMAQTVPFENLNILEKNFKEISKENLKEKILVNNRGGLCYELNPTMYYFLKDSGFDVHLVSGTVYNAANSIWAVDSGHIATVLTHHNELYLIEVGFGSYLPLAPVPFLGEVIHSATGDYRIRKEMTEKGNYILEMRKNNEFLDQSAADDWTLGYAFYIEEVDEEKANTAQKIIVEHEGSPFNKVPLIVKLTEDGHASLTKDSLTVAKNGKKTKETVTDMQYTNLLHSKFGITL,not soluble
4,MFTLRELPFAKDSMGDFLSPVAFDFHHGKHHQTYVNNLNNLIKGTDFEKSSLFAILTKSSGGVFNNAAQIYNHDFYWDCLSPKATALSDELKGALEKDFGSLEKFKEDFIKSATTLFGSGWNWAAYNLDTQKIEIIQTSNAQTPVTDKKVPLLVVDVWEHAYYIDHKNARPVYLEKFYGHINWHFVSQCYEWAKKEGLGSVDYYINELVHKKL,soluble
5,MAHHHHHHMTSVYNFKTITVVPTYKDFMDIVLSKTQRKTPTVVHKGYHISRIRQFYMRKVKFTQKTINEKLTYILQEFPRMDDIHPFYGDLMHVLYDRDHYKVALGQVGAVRHMVDNIGRDYVRLLKYGDSLYRCKQLKRAALGRMATACKKLNSALAYLEKVRQHMSRLPSIDPNARTLLVTGFPNVGKSSFMNKVTRADVEVQPYAFTTKSLFVGHTDYKYTTWQVIDTPGILDHSLEERNVIEMQAITALAHLRACILFFMDLSGQCGYSIEQQVSLFKSVGPLFTGKPVVVVFNKCDVCTIDDVSSAEQELIMDAIQEADAKWITTSTLTDVGVGDLKTVACDMLLAHRSEQKEGSGRYQAIQNRLYCATPQQRDELERPAFVPASVLQARATGEPPRQRRKTERDYEWENGGPGQYQKNERKTWDLENPEWVDDIIPDIMDGHNIYDNIDPDIHQRLLELEAEEEARLEDLELEASRKHEQYTLDNDTIEAVKFIKDKIKVLKMERAMKNPAIRRTHSQAMAIDKFNKRTGSQDARAKSIADGSGEVPTRKRGRSMSVAQEALIRDRSGSAHVSTKTTRSISGASASRERSMSVNRGDGYRDVNEKLRAVKLSKVKARPLARQARKGEGDHHIPNLRPMHLFTGKVKSNGARDRR,not soluble
6,MLARGKTNLKIEEIRMHKHHEIHRVKPLMPALCRIRQGKKVINWETHTLTVDNNQIILFPCGYEFYIENYPEAGLYLAEMLYLPIDLIESFQKLYTVTDQIRNKTSFFLPQNPELIYCWEQLKTSVSRGFSTKIQEHLAMGVLLSLGVNHVNHLLLSYSKQSLISRCYNLLLSEPGTKWTANKVARYLYISVSTLHRRLASEGVSFQSILDDVRLNNALSAIQTTVKPISEIARENGYKCPSRFTERFHNRFNITPREIRKASRE,soluble
7,MSLKSIILEDANAKLREDAHTFVFDGHAGVKGRVDFARLGSNNPIEDDWDLKIAKGVGGTKTLYAGVYDGHAGWATSQVLRNALVPYVSGALSSLTPTTSTELVDDAIQKAFVRLDNRIFDTALKAVESGLDQGTASVISAVAPAIAGSCALLTMYEPVTSTLRTAVAGDSRAVRGAWSSNANKYETDILSIDQTGFNQLEVERLDKEHPGQLHSMLNLDSGRLFGLAVTRAFGDHRLKWPAKVIRKVQDDYYGTPPRPNYTTPPYLTARPEVTTRKIQTEDFVILGSDGLWDMISNEDAVTCISRWLSAKKSGKPEPFKETKFEGKLEDGWQATPEHHVIEDLDNAAVCLVKNAFGGSRRGLFLGAMTTYAPMSRNVRDDITVQIIFFKDPYEKEGHHHHHH,soluble
8,MSSHHHHHHSSGLVPRGSHMASMSDSEVNQEAKPEVKPEVKPETHINLKVSDGSSEIFFKIKKTTPLRRLMEAFAKRQGKEMDSLRFLYDGIRIQADQTPEDLDMEDNDIIEAHREQIGGSLMIIENSHVKKDDIWPSGGQMTVKDLTAKYTEGGNAILENISFSISPGQRVGLLGRTGSGKSTLLSAFLRLLNTEGEIQIDGVSWDSITLQQWRKAFGVIPQKVFIFSGTFRKNLDPYEQWSDQEIWKVADEVGLRSVIEQFPGKLDFVLVDGGCVLSHGHKQLMCLARSVLSKAKILLLDQPSAHLDPVTYQIIRRTLKQAFADCTVILCEHRIEAMLECQQFLVIEENKVRQYDSIQKLLNERSLFRQAISPSDRVKLFPHRNSSK,soluble
9,MSLTQLQITAFGDPSVLRLNPSLDKVPADGEVRVRICFAGVNPIDAKTRAGLGWAAAQNKDKLPWTPGYDVAGVVEKIGPGVTALAEGDRVCGMVGFPLAAGGYGESVVAREEELVRLEDIGLRQGAALPLAGLTAWQGLFEHGALKAGQRVLILAGAGGVGHLAVQFASAYGAEVVATASRDNHSFLHGLGASRMVDYHDADWVAQVGQVELVLDLVGGESGKAALACVKPGGRLVTVPTISAQQIKDAAAGSAIEVLGMLVHPDRQQLSQMLTLLRQGEVQVTVAGEYALAEGALAHQAIEQGHVRGKLLLRMPAAEGHHHHHH,soluble
10,MALLILFFLLGLSFSLEVFSEKLEIKENEIIAEGDAEAYYKNYYIKAKKIKLLRDKDEVYAYEDVYIKNLKTGFEIRGSFAYVNMKKNKGYFLNAKGKFREFNFEAKKIEQLDKERFKVYEATVTTCPLDDKELYLCIFRANITKERALIFHNRLKFFKVPIFYLPVYLIPLGGRKTGFLMPTIGSSTYSSFIYIQPFFWAISRDKDMTITADYRKDQMKGLSLEYRQAFDEESDLITQFSLYKEDKKKGDWWKGREMYRENRFRIFMKYRKKPFKIGVEELSDPYYYEDISFKQEEITKPYTKTYLIYEKETKNYLFYFQTVRYRDLTEEKNNAVNLLPEASFHLKPFYYKGFNFSLDSSFTNFYRNYDGSFMRISLEPTVGKYFELFKVSNYSSLTLINRYYPDSEEDKIVSTFRFRHSVPQYFSLSYGGFKFKNFLEGLYTFSPKDYEVQIFDYQDELNEENNFQFTLVGNLYKNRKLMDYFLNTGYNLLGSYTFPTDGKKIDKKLLPLYYNVSVYPVENVRFWQDAVYDFNLGVFARNVIGTDISWKNFSVGISNSVYKNSEKKVTTDQIALNLKYSGDKFFSGISLNYDRLVDKETYRNVYVGVKGKCWSLVLDYKRNYYRNRDEYVDQVFLRFNLFFKEEIEIPLRR,not soluble
11,MKCLVTGGNVKVLGKAVHSLSRIGDELYLEPLEDGLSLRTVNSSRSAYACFLFAPLFFQQYQAATPGQDLLRCKILMKSFLSVFRSLAMLEKTVEKCCISLNGRSSRLVVQLHCKFGVRKTHNLSFQDCESLQAVFDPASCPHMLRAPARVLGEAVLPFSPALAEVTLGIGRGRRVILRSYHEEEADSTAKAMVTEMCLGEEDFQQLQAQEGVAITFCLKEFRGLLSFAESANLNLSIHFDAPGRPAIFTIKDSLLDGHFVLATLS,soluble
12,GMKIEHVALWTTNLEQMKQFYVTYFGATANDLYENKTKGFNSYFLSFEDGARLEIMSRTDVTGKTTGENLGWAHIAISTGTKEAVDELTEKLRQDGFAIAGEPRMTGDGYYESVVLDPEGNRIEITW,soluble
13,MSIYSKILVVADINNDEQPALARAVQLAQKSVSRSRITFFLSIYDFSYDMTSMLSVDERDAMRRGVIHQREQWMRKIAQPYLNDSFDFDVCVVWHNRPYEAIIAEVYAGGHDLLIKGTRKHDVLESVIFTPTDWHLLRKCPTPVLLIKNSDWPEQANILASVHVGSENPTHIDLNDAMVERLKEMSNRLDAEPYLVNAYPVTPANITIELPEFDPTTYTDAVRGHHLTAMKALRQKHGIDEEQT,not soluble
14,MGSDKIHHHHHHDKNSAPGFSFTTDSILTLTFDKELDAAFVGVGTQNYNPVGMRRSGDTLFIANRAEGSDGVWVVRASTGELLYSLTGWTYNGKNEKFDNQVMDVAVSSDYIFVVNRSSRIDLFRRNDYSYVTTIGRTGWQSSSLLQCEAAEVAGDKLFIRDKQKIKVVQISDCTPENRFKVPVFAQNTDSTSSNNGFNLESVARHEGLIYVSDYETSRILVIDPATVAVKGEPVRFLRSYRMPNKPLSMGFFQNEMYVVCANNCIVRVDLRTGKELGSYSSFAGGVGLGTPGRLLFHNDTFYLAGRNANAPRLIQGKVMFVEISELD,not soluble
15,MGSDKIHHHHHHMSIDIDIIKARAKNEYRLSKVRGEAMISVRIPGGILPAHLLTVARDIAETWGNGQIHLTTRQKLAMPGIRYEDIDNVNAALEPFLREIEIELCDVQVEDTKAGYLAIGGRNIVACQGNRICQKANTDTTGLSRRLEKLVYPSPYHLKTVIVGCPNDCAKASMADLGIIGVAKMRFTADRCIGCGACVKACSHHAVGCLALKNGKAVKEESACIGCGECVLACPTLAWQRKPDQLWQVRLGGRTSKKTPRVGKLFLNWVTEDVIKQVIVNLYEFEKEMLGGKPIYLHMGHLIDKGGYLRFKERVLRGVQLNPEAMVAERIYWAEDESVARMHLKPAGH,not soluble
16,MSLQKNNLHIIIAEDDFDDADMICETFNQNPNFGKVSLVANGEELLNYLKNASNESPDVILTDINMPIVDGIEALQQILNNSDLKNIPCFVYSTSINPSYKEKCDDLGVKAYLIKPYSFEAFAEIPKTILSIIQAEGHHHHHH,soluble
17,MISVVGAGGKTSLLFWLAELLQASGRRVLITTTTHMFMPTSHWPVVFCRDPAMLPHASLTSPISFCFHSWKANQGKVQGFTPEAIDALVQRPECDVILIEADGSRGMPLKAPDEHEPCIPKSSCCVIAVMGGHTLGAKVSTENVHRWSQFADITGLTPDATLQLSDLVALVRHPQGAFKNVPQGCRRVWFINRFSQCENAIAQSELLQPLQQHDVEAIWLGDIQEHPAIARRFVNLEHHHHHH,not soluble
18,MQLYYLGPKGTFSYLACRQYFSENEATFQPKSNLFEVIKAVADDDTSIGVVPIENSIEGTINIVADALAQQDVFAHGEIRLDINFALYGNGTDSISDIKKVYSIAPAISQTTNYIHQHQFDYDYVDSTIQSLTKIENGVAAIAPLGSGEAYGFTPIDTHIEDYPHNVTRFLVIKNQQQFDQNATSLMFLITPMHDKPGLLASVLNTFALFNINLSWIESRPLKTQLGMYRFFVQADSAITTDIKKVIAILETLDFKVEMIGAFN,soluble
19,MSLTASYETIKARLDGTVLSATFNAPPMNLIGPEVVRDLVALLEELAHPTAPRVVIFDSADADFFFPHVDMTKVPEYTAEAAKAGGPGDASLGMLFRKLSQLPAVTIAKLRGRARGAGSEFLLACDMRFASRENAILGQPEVGIGAPPGAGAIQHLTRLLGRGRALEAVLTSSDFDADLAERYGWVNRAVPDAELDEFVAGIAARMSGFPRDALIAAKSAINAISLPAPAEVRADAALFQQLVRGEKVQQRTAELFKQGFQTRGATELDLGDALGHLKAVDEGHHHHHH,soluble
